This note sets out measurements from patent publication US20230227547A1 (IPROGEN BIOTECH, published 2023).

Test [1] has as its target T1, sodium-dependent phosphate transport protein 2B (NaPi2b) (human, UniProt O95436 1-690).
T1 construct: whole, on cells
T1 sequence (looked up): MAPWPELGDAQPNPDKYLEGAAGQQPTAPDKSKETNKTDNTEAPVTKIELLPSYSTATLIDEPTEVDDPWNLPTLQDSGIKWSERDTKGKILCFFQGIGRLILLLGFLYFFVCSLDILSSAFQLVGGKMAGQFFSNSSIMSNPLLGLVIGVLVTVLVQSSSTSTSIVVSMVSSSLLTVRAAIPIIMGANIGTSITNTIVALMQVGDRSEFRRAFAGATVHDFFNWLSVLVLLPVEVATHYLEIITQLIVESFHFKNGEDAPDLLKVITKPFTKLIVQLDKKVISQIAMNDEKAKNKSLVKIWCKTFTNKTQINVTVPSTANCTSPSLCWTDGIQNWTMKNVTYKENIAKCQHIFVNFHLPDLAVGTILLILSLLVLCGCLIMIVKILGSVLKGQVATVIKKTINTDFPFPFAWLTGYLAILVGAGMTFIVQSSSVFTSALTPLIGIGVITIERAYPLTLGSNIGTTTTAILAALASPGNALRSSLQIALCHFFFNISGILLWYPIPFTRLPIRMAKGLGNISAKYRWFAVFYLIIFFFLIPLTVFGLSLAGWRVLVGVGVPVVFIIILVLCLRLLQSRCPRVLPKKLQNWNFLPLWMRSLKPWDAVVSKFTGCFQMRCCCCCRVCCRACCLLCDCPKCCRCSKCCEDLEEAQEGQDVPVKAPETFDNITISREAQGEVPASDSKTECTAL
The experiment in a line: fluorescence microscopy, goat anti-human IgG-AlexaFluor488, OVCAR3 cells, 100 nM mAb, 3 h.
Experimental: (§1) Delivery assay. […] The permeabilized cells were then incubated with 5% (v/v) FBS, 0.05% (v/v) Tween-20 in PBS at 37 degree Celsius incubator for 30 minutes. […] After incubation, the labelled cells were washed twice with PBS, and stored in storage buffer [5% (v/v) FBS in PBS] at 4 degree Celsius until fluorescence microscope imaging.

Test [2] concerns the target T1, sodium-dependent phosphate transport …. The experiment in a line: fluorescence microscopy, goat anti-human IgG-AlexaFluor488, OVCAR3 cells, 100 nM mAb-LL37, 3 h.
Experimental: as §1
Test [3] addresses T2, Epithelial cell adhesion molecule (EpCAM) (human, UniProt P16422 24-314).
T2 construct: whole, on cells
T2 sequence (looked up): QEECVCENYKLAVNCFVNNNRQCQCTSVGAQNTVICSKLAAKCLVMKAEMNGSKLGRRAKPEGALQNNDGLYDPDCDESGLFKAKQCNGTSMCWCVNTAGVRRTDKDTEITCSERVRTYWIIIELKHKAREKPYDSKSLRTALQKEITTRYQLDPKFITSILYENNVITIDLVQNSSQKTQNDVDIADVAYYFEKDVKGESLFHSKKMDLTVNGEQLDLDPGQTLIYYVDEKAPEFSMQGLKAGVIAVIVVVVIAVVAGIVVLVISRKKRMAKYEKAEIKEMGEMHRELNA
Kind of test: fluorescence microscopy, goat anti-human IgG-AlexaFluor488, LnCap cells, 100 nM mAb, 3 h.
Experimental: as §1

Test [4] concerns the target T3, folate receptor (human, UniProt P15328 25-234).
T3 construct: whole, on cells; also called folate receptor alpha
Kind of test: summary sentence of Example 3.

Test [5] concerns the target T4, CD33A (human, UniProt P20138 18-364).
T4 construct: whole, on cells
Kind of test: summary sentence of Example 3.

Test [6] concerns the target T2, Epithelial cell adhesion molecule …. Kind of test: fluorescence microscopy, goat anti-human IgG-AlexaFluor488, LnCap cells, 100 nM mAb-LL37, 3 h.
Experimental: as §1

T4 sequence (P20138 18-364): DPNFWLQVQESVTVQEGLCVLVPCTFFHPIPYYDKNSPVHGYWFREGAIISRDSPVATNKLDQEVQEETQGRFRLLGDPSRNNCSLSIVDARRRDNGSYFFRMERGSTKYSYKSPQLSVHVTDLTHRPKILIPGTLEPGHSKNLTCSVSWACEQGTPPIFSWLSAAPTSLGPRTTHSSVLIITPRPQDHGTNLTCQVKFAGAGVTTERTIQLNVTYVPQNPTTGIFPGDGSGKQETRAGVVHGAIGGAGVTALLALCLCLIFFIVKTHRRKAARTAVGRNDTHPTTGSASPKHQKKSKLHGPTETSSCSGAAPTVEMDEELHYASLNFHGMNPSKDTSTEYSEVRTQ
T3 sequence (P15328 25-234): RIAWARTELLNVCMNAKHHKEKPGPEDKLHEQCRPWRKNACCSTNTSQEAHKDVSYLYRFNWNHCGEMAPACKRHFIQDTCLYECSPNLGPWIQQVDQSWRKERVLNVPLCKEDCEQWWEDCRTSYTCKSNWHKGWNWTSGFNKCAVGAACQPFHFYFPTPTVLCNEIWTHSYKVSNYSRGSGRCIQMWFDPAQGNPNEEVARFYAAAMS

B1: Anti-NaPi2b mAb, Lifastuzumab (antibody, human IgG1, kappa)
heavy: not shown
light: DIQMTQSPSSLSASVGDRVTITCRSSETLVHSSGNTYLEWYQQKPGKAPKLLIYRVSNRFSGVPSRFSGSGSGTDFTLTISSLQPEDFATYYCFQGSFNPLTFGQGTKVEIKRTVAAPSVFIFPPSDEQLKSGTASVVCLLNNFYPREAKVQWKVDNALQSGNSQESVTEQDSKDSTYSLSSTLTLSKADYEKHKVYACEVTHQGLSSPVTKSFNRGECGGGGSLPMTGGHG
B1: the binding result in test [1] is reported as “binds”.

B2: Lifastuzumab-LL37 (LL37-linked anti-NaPi2b mAb) (antibody, human IgG1, kappa)
heavy: not shown
light: DIQMTQSPSSLSASVGDRVTITCRSSETLVHSSGNTYLEWYQQKPGKAPKLLIYRVSNRFSGVPSRFSGSGSGTDFTLTISSLQPEDFATYYCFQGSFNPLTFGQGTKVEIKRTVAAPSVFIFPPSDEQLKSGTASVVCLLNNFYPREAKVQWKVDNALQSGNSQESVTEQDSKDSTYSLSSTLTLSKADYEKHKVYACEVTHQGLSSPVTKSFNRGECGGGGSLPMTGGLLGDFFRKSKEKIGKEFKRIVQRIKDFLRNLVPRTES
B2: the binding result in test [2] is recorded as “binds”.

B3: Anti-EpCAM mAb, Citatuzumab (antibody, human IgG1, kappa)
heavy: not shown
light: DIQMTQSPSSLSASVGDRVTITCRSTKSLLHSNGITYLYWYQQKPGKAPKLLIYQMSNLASGVPSRFSSSGSGTDFTLTISSLQPEDFATYYCAQNLEIPRTFGQGTKVEIKRTVAAPSVFIFPPSDEQLKSGTASVVCLLNNFYPREAKVQWKVDNALQSGNSQESVTEQDSKDSTYSLSSTLTLSKADYEKHKVYACEVTHQGLSSPVTKSFNRGECGGGGSLPMTGGHG
As to B3, the binding result in test [3] is given as “binds”.

B4: Anti-folate receptor mAb-LL37 (Mirvetuximab-LL37) (antibody, human IgG1, kappa)
heavy: not shown
light: DIVLTQSPLSLAVSLGQPAIISCKASQSVSFAGTSLMHWYHQKPGQQPRLLIYRASNLEAGVPDRFSGSGSKTDFTLTISPVEAEDAATYYCQQSREYPYTFGGGTKLEIKRTVAAPSVFIFPPSDEQLKSGTASVVCLLNNFYPREAKVQWKVDNALQSGNSQESVTEQDSKDSTYSLSSTLTLSKADYEKHKVYACEVTHQGLSSPVTKSFNRGECGGGGSLPETGGLLGDFFRKSKEKIGKEFKRIVQRIKDFLRNLVPRTES
notes: also called anti-folate receptor mAb (mirvetuximab) with LL37 conjugation
For the molecule B4, in test [4], the binding result is given as “binds”.

B5: Anti-CD33A mAb (Vadastuximab)-LL37 (antibody, human IgG1, kappa)
heavy: not shown
light: DIQMTQSPSSLSASVGDRVTINCKASQDINSYLSWFQQKPGKAPKTLIYRANRLVDGVPSRFSGSGSGQDYTLTISSLQPEDFATYYCLQYDEFPLTFGGGTKVEIKRTVAAPSVFIFPPSDEQLKSGTASVVCLLNNFYPREAKVQWKVDNALQSGNSQESVTEQDSKDSTYSLSSTLTLSKADYEKHKVYACEVTHQGLSSPVTKSFNRGECGGGGSLPMTGGLLGDFFRKSKEKIGKEFKRIVQRIKDFLRNLVPRTES
For B5, in test [5], the binding result is “binds”.

B6: Citatuzumab-LL37 (LL37-conjugated anti-EpCAM antibody citatuzumab) (antibody, human IgG1, kappa)
heavy: not shown
light: DIQMTQSPSSLSASVGDRVTITCRSTKSLLHSNGITYLYWYQQKPGKAPKLLIYQMSNLASGVPSRFSSSGSGTDFTLTISSLQPEDFATYYCAQNLEIPRTFGQGTKVEIKRTVAAPSVFIFPPSDEQLKSGTASVVCLLNNFYPREAKVQWKVDNALQSGNSQESVTEQDSKDSTYSLSSTLTLSKADYEKHKVYACEVTHQGLSSPVTKSFNRGECGGGGSLPMTGGLLGDFFRKSKEKIGKEFKRIVQRIKDFLRNLVPRTES
In the case of B6, the binding result in test [6] is given as “binds”.
